Results as given in patent US20220047695A1.
Several values for one entry are separate records, joined by “and”; a condition that tells them apart may be missing. Equal entries are not always repeated.

Molecular target: IgE-GLT1-NP (IgE leader, lumazine synthase, linker, eOD-GT8; self-assembling 60mer nanoparticle) (Aquifex aeolicus lumazine synthase fused to HIV-1 gp120 fragment)
Assay: immunogold TEM of muscle sections from mice immunized with DNA-encoded IgE-GLT1-NP (VRC01 + anti-human 6 nm gold)

## VRC01 antibody (NIH AIDS Reagent)
  visible copies of VRC01 binding: 11 copies and 17 copies
